In US8329178B2:

Key:
Experiment in all cases: FACS, 293T cells expressing CXCR4 variants
ΔN25-CXCR4 (human) = ΔN25-CXCR4 (human) (UniProt P61073)
[1] = target: human CXCR4 (wild type) (human) (UniProt P61073)
[2] = target: CXCR2/CXCR4 chimera 2442 (human) (UniProt P61073)
[3] = target: CXCR2/CXCR4 chimera 4442 (human) (UniProt P61073)
[4] = target: CXCR2/CXCR4 chimera 2444b (human) (UniProt P61073)
ΔN31-CXCR4 (human) = ΔN31-CXCR4 (human) (UniProt P61073)

murine monoclonal antibody 12G5
binding to cells expressing the variant (+%) (ΔN25-CXCR4 (human)): 69.2%
binding to cells expressing the variant (+%) [1]: 100%
binding to cells expressing the variant (+%) [2]: 85.8%
binding to cells expressing the variant (+%) [3]: 103%
binding to cells expressing the variant (+%) [4]: 70.1%
binding to cells expressing the variant (+%) (ΔN31-CXCR4 (human)): 55.4%
